Source: paper PMC12947862, “Oligomerization enables the selective targeting of an intrinsically disordered region by a small molecule” (Science Advances, 2026)

B1: AR AD fragment transactivation unit 5 (Tau-5*; residues 330 to 448) [human (from the printed UniProt entry)] / itself (parent)
chain: AAGSSGTLELPSTLSLYKSGALDEAAAYQSRDYYNFPLALAGPPPPPPPPHPHARIKLENPLDYGSAWAAAAAQCRYGDLASLHGAGAAGPGSGSPSAAASSSWHTLFTAEEGQLYGPC

Variants of: B1
Assay: 2D 1H-15N NMR, concentration-dependent CSPs (self-association)
Conditions: with itself; protein concentration from 25 to 400 μM; read off a plot

Compared with chain 1 C75Y, chain 1 L107P is lower in response: 0.019 p.p.m for the first, 0.0065 p.p.m for the second.

Compared with chain 1 W104A H105A F108A, chain 1 A69P is lower in response: 0.0068 p.p.m for the first, 0.005 p.p.m for the second.

Compared with chain 1 G65A S66A G78A, chain 1 G78A is lower in response: 0.02 p.p.m for the first, 0.013 p.p.m for the second.
